Target: recombinant Hsp90α (human) (UniProt P07900)

inhibition of Hsp90α ATPase activity in vitro (PiPer Phosphate Assay) by 100 nM Tsc1-D: 72%
B1: Tsc1-D-His6 (domain or fragment)
chain: DGCSDSMVGHNEEASGHNGETKTPRPSSARGSSGSRGGGGSSSSSSELSTPEKPPHQRAGPFSSRWETTMGEASASIPTTVGSLPSSKSFLGMKARELFRNKSESQCDEDGMTSSLSESLKTELGKDLGVEAKIPLNLDGPHPSPPTPDSVGQLHIMDYNETHHEHS

From paper PMC5730846
